The results in this text go back to paper PMC9563779 (Cancers, 2022).

Assay [1] concerns the target T1, 611-CTF-p95HER2 (611-carboxy terminal fragment of HER2) on p95HER2-T47D cells (Homo sapiens, UniProt P04626).
T1 construct: source: p95HER2-T47D cells (C2069, Crown Bioscience); cultured cells and orthotopic xenograft tumours in NSG mice
The assay can be described thus: flow cytometry on cells; Oslo-2 mAb 10 μg/mL on cell lines, 30 min at 4 °C in FACS buffer (PBS pH 7, 2% FBS, 2 mM EDTA), labelled secondary antibody. The following applies: one partner purified.

In assay [2] the target is T2, full-length HER2 (endogenous) (Homo sapiens, UniProt P04626).
T2 construct: human epidermal growth factor receptor 2 (HER2), full-length, on cells and in tissue sections; also called HER2 full-length; full-length HER2 receptor; source: endogenous, SK-BR-3 and A549 cells; endogenous, human breast carcinoma biopsy and normal human tissues
The description is as above. The following applies: one partner purified.

Assay [3] deals with T3, full-length HER2 in transduced MDA-MB-468 cells (Homo sapiens, UniProt P04626).
T3 construct: full-length HER2 expressed from the plasmid pBABEpuro-ERBB2; source: cultured cells and subcutaneous xenograft tumours
Described as above. The following applies: one partner purified.

Assay [4] addresses T4, N-terminally truncated 20 mer without methionine-611 (612-622) (Homo sapiens).
T4 construct: source: synthetic peptide, immobilised on a cellulose membrane (PepSpots, JPT Peptide Technologies)
T4 chain: PIWKFPDEEGA
The assay can be described thus: peptide or protein array; peptides immobilised on a cellulose membrane (PepSpots); Oslo-2 mAb 5 μg/mL in 5% nonfat skim milk, three hours at RT; HRP-conjugated secondary antibody, chemiluminescence. The following applies: both partners purified.

The target of assay [5] is T5, N-terminally truncated 20 mer without proline-612 (613-622) (Homo sapiens).
T5 construct: source: synthetic peptide, immobilised on a cellulose membrane (PepSpots, JPT Peptide Technologies)
T5 chain: IWKFPDEEGA
Described as above. The following applies: both partners purified.

Assay [6] deals with T6, N-terminally truncated 20 mer without isoleucine-613 (614-622) (Homo sapiens).
T6 construct: source: synthetic peptide, immobilised on a cellulose membrane (PepSpots, JPT Peptide Technologies)
T6 chain: WKFPDEEGA
Described as above. The following applies: both partners purified.

In assay [7] the target is T7, peptide 1 of the overlapping 15mer peptides covering the p95HER2 extracellular domain (Homo sapiens, UniProt P04626).
T7 construct: first 15mer of the p95HER2 extracellular domain, containing MPIW; source: synthetic peptide, immobilised on a cellulose membrane (PepSpots, JPT Peptide Technologies)
T7 chain: MPIWKFPDEEGACQP
The assay is described as above. The following applies: both partners purified.

The target in assay [8] is T8, 20 mer epitope peptide GVKPDLSYMPIWKFPDEEGA (region 603-622 in HER2) (Homo sapiens).
T8 construct: region 603-622 in HER2, spanning the N terminus of the p95HER2 extracellular domain; source: synthetic peptide, immobilised on a cellulose membrane (PepSpots, JPT Peptide Technologies)
T8 chain: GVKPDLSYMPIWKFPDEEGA
The assay is described as above. The following applies: both partners purified.

Assay [9] addresses T9, extracellular domain of p95HER2 peptide with a poly-histidine-tag in the C-terminus (Homo sapiens).
T9 construct: printed with HHHHHH at the C-terminus; also called p95HER2 ECD peptide; source: synthetic peptide (GenScript); not shown: His6, C-terminal, kept
The assay is described as follows: SPR; Oslo-2 mAb (5 μg/mL) covalently immobilised by amine coupling on a CM5 chip, anti-HER2 (cytopla-HER2) mAb on the reference flow cell; p95HER2 ECD peptide as analyte, 0.6 to 2500 nM; HBS-EP+ buffer; 25 °C; Biacore T200; global fit to the 1:1 bimolecular interaction model. The following applies: both partners purified.

Assay [10] addresses T1, 611-CTF-p95HER2 (611-carboxy terminal …). The assay is described as follows: flow cytometry on cells; monoclonal hybridoma supernatant (1:50 dilution) on cell lines, 30 min at 4 °C in FACS buffer, goat anti-rat-PE. The following applies: partners not purified.

B1: Oslo-2 mAb (antibody, V domains shown)
VH: EVQILETGGGLVKPGGSLRLSCATSGFNFNDYFMNWVRQAPGKGLEWIAQIRNKNYNYATYFAESLEGRFTISRDDSKSSVYLQVNSLRAEDTALYYCTELRYDYWGQGVMVTVSS
VL: DIVMTQSPFSLAVSEGEMVTINCKSSQSLLSSGNQKNNLAWYQQKPGQSPKLLIYYASTRQSGVPDRFIGSGSGTDFTLTISDVQAEDLADYYCLQHYSSPYTFGAGTKLELK
notes: variable heavy domain; variable light domain; On the peptide membrane Oslo-2 was detected with a horse anti-mouse secondary antibody, so the constant regions may be mouse (surmise); also called Oslo-2 Ab; Oslo-2 (p95HER2) antibody
As a reminder, the Kd is the concentration at which binding is half-saturated. A low value points to higher affinity. As to B1, the binding result in [1] is “binds”; in assay [2] it was “no binding (tested: 10 μg/mL)”; in [3], “no binding (tested: 10 μg/mL)”; in [4], “binds”; in [5], “binds”; in assay [6] it was “binds”. Further, the binding result in assay [7] and in assay [8] was “binds” throughout. This molecule also displayed a Kd in assay [9] of 2 nM.

B2: mClone 1 (monoclonal hybridoma culture supernatant) (antibody, V domains shown)
VH: B1 VH
VL: B1 VL
notes: constant region of the rat hybridoma antibody; source: rat hybridoma (B-cells fused with Ag8 myeloma cells), sub-cloned by limited dilution, culture supernatant
For the molecule B2, the binding result in assay [10] is on record as “binds”.
